Tests used:
Type in all cases: cell-based, human
[1] = system: DYNLT1 locus; assay: mKate knock-in gene-editing assay, RecE/RecT homologs, DYNLT1 locus; details: HEK293 cells, MCP fusion, n=3
How it was run: (§1)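 RecE/RecT homologs from 15 microbial species, codon-optimized and each fused via E-XTEN linker to MCP with NLS, tested for mKate knock-in. Cells transfected by Lipofectamine 3000 (HEK293T 250 ng DNA/well; HeLa, HepG2 400 ng); knock-in efficiency measured by flow cytometry 72 h post-transfection.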

[2] = system: HSP90AA1 locus; assay: mKate knock-in gene-editing assay, RecE/RecT homologs, HSP90AA1 locus; details: HEK293 cells, MCP fusion, n=3
How it was run: as §1

[3] = system: endogenous genomic loci (DYNLT1, HSP90AA1, AAVS1, ACTB) in HEK293T cells; assay: Kilobase mKate knock-in assay in HEK293T cells (flow cytometry); details: for HDR / knock-in efficiency enhancement: five genomic sites (EMX1, VEGFA, HSP90AA1, DYNLT1, AAVS1), wtCas9
Procedure: Transfection HEK293T cells were seeded into 96-well plates (Corning) 12-24 hours prior to transfection at a density of 30,000 cells/well, and 250 ng of total DNA was transfected per well. HeLa and HepG2 cells were seeded into 48-well plates (Corning) one day prior to transfection at a density of 50,000 and 30,000 cells/well respectively, and 400 ng of total DNA was transfected per well. Transfections were performed with Lipofectamine 3000 (Life Technologies) following the manufacturer's instructions.
(§2) Fluorescence-activated cell sorting (FACS) mKate knock-in efficiency was analyzed on a CytoFLEX flow cytometer (Beckman Coulter; Stanford Stem Cell FACS Core). 72 hours after transfection, cells were washed once with PBS and dissociated with TrypLE Express Enzyme (Thermo Fisher Scientific). Cell suspension was then transferred to a 96-well U-bottom plate (Thermo Fisher Scientific) and centrifuged at 300×G for 5 minutes. After removing the supernatant, pelleted cells were resuspended with 50 μl 4% FBS in PBS, and cells were sorted within 30 minutes of preparation.
HEK293T, Hela, HepG2 and U2OS cells were seeded into 96-well plates (Corning) 12-24 hours prior to transfection at a density of 30,000 cells/well, and 250 ng of total DNA was transfected per well. Cells were transfected with Lipofectamine 3000 (Life Technologies) following the manufacturer's instructions when the cell are ˜70% confluence. In brief, we used 250 ng total DNA, 0.4 ul Lip3000 reagent, mixed with 10 ul of Opti-MEM per well. For the 250 ng DNA, we used 160 ng of dCas9-SSAP guide RNA plasmids (for double sgRNAd design, use equal amount of the two guide RNA plasmids, e.g., 80 ng each), 60 ng of pMCP-RecT or GFP control plasmid (addgene #64539) and 30 ng of PCR template DNA (the PCR primer could be found in Table 7, the template sequence could be found in Supplementary Sequences). Three days later, the cells were analyzed using FACS.
as §2, with “mKate” for “Fluorescence-activated cell sorting (FACS) mKate”, “transfection or 96 hours after electroporation,” for “transfection,”, “twice” for “once”, “300 g” for “300×G”, “analyzed” for “sorted”, “after” for “of”

Molecule	Mean mKate+ (%), DYNLT1 [1]	Mean mKate+ (%), HSP90AA1 [2]	HDR / knock-in efficiency enhancement [3]	activity in no-recruitment control ([3]; PCP no-recruitment control)
Homolog_T15: RecT, Photobacterium sp. JCM 19050; SEQ ID NO: 141 (protein, listed as Photobacterium sp.) MNTDMIAMPPSPAISMLDTSKLDVMVRAAELMSQAVVMVPDHFKGKPADCLAVVMQADQWGMNPFTVAQKTHLVSGTLGYESQLVNAVISSSKAIKGRFHYEWSDGWERLAGKVQYVKESRQRKGQQGSYQVTVAKPTWKPEDEQGLWVRCGAVLAGEKDITWGPKLYLASVLVRNSELWTTKPYQQAAYTALKDWSRLYTPAVMQGSMTGKSWSLTGRLISPR	7.8033%	5.2333%	–	–
EcRecE_587: Escherichia coli RecE truncated from AA587; SEQ ID NO: 2 (protein) ADPVIVEDIEPGIYYGISNENYHAGPGVSKSQLDDIADTPALYLWRKNAPVDTTKTKTLDLGTAFHCRVLEPEEFSNRFIVAPEFNRRTNSGKEEEKAFLRECASTGKTVITAEEGRKIELMYQSVMALPLGQWLVESAGHAESSIYWEDPETAILCRCRPDKIIPEFHWIMDVKTTADIQRFKTAYYDYRYHVQDAFYSDGYEAQFGVQPTFVFLVASTTIECGRYPVEIFMMGEEAKLAGQLEYHRNLRTLADCLNTDEWPAIKTLSLPRWAKEYAND	5.1767%	3.7067%	variable increases in knock-in efficiency	–
Homolog_E13: RecE, Salmonella enterica subsp. enterica serovar Javiana str. 10721; SEQ ID NO: 138 (protein, listed as Salmonella enterica) MYYDIPNEAYHAGPGVSKSQLDDIADTPAIYLWRKNAPVDTEKTKSLDTGTAFHCRVLEPEEFSKRFIIAPEFNRRTSAGKEEEKTFLEECTRTGRTVLTAEEGRKIELMYQSVMALPLGQWLVESAGYAESSVYWEDPETGILCRCRPDKIIPEFHWIMDVKTTADIQRFRTAYYDYRYHVQDAFYSDGYRAQFGEIPTFVFLVASTTAECGRYPVEIFMMGEDAKLAGQREYRRNLQTLAECLNNDEWPAIKTLSLPRWAKENANA	5.6333%	5.6900%	–	–
Homolog_E15: RecE, Photobacterium sp. JCM 19050; SEQ ID NO: 142 (protein, listed as Photobacterium sp.) MAERVRTYQRDAVFAHELKAEFDEAVENGKTGVTLEDQARAKRMVHEATTNPASRNWFRYDGELAACERSYFWRDEEAGLVLKARPDKEIGNNLIDVKSIEVPTDVCACDLNAYINRQIEKRGYHISAAHYLSGTGKDRFFWIFINKVKGYEWVAIVEASPLHIELGTYEVLEGLRSIASSTKEADYPAPLSHPVNERGIPQPLMSNLSTYAMKRLEQFREL	5.0700%	6.0500%	–	–
RecE_CTD: carboxy terminus domain of E. coli RecE; SEQ ID NO: 3 (protein) GISNENYHAGPGVSKSQLDDIADTPALYLWRKNAPVDTTKTKTLDLGTAFHCRVLEPEEFSNRFIVAPEFNRRTNSGKEEEKAFLRECASTGKTVITAEEGRKIELMYQSVMALPLGQWLVESAGHAESSIYWEDPETAILCRCRPDKIIPEFHWIMDVKTTADIQRFKTAYYDYRYHVQDAFYSDGYEAQFGVQPTFVFLVASTTIECGRYPVEIFMMGEEAKLAGQLEYHRNLRTLADCLNTDEWPAIKTLSLPRWAKEYAND	–	–	variable increases in knock-in efficiency	–
Homolog_T14: RecT, Pseudobacteriovorax antillogorgiicola; SEQ ID NO: 139 (protein, listed as Pseudobacteriovorax antillogorgiicola) MGHLVSKTEQDYIKQHYAKGATDQEFEHFIGVCRARGLNPAANQIYFVKYRSKDGPAKPAFILSIDSLRLIAHRTGDYAGCSEPIFTDGGKACTVTVRRNLKSGETGNFSGMAFYDEQVQQKNGRPTSFWQSKPRTMLEKCAEAKALRKAFPQDLGQFYIREEMPPQYDEPIQVHKPKALEEPRFSKSDLSRRKGLNRKLSALGVDPSRFDEVATFLDGTPDRELGQKLKLWLKEAGYGVNQ	6.7700%	4.7200%	–	–
Homolog_E14: RecE, Pseudobacteriovorax antillogorgiicola; SEQ ID NO: 140 (protein, listed as Pseudobacteriovorax antillogorgiicola) MSKLSNLKVSNSDVDTLSRIRMKEGVYRDLPIESYHQSPGYSKTSLCQIDKAPIYLKTKVPQKSTKSLNIGTAFHEAMEGVFKDKYVVHPDPGVNKTTKSWKDFVKRYPKHMPLKRSEYDQVLAMYDAARSYRPFQKYHLSRGFYESSFYWHDAVTNSLIKCRPDYITPDGMSVIDFKTTVDPSPKGFQYQAYKYHYYVSAALTLEGIEAVTGIRPKEYLFLAVSNSAPYLTALYRASEKEIALGDHFIRRSLLTLKTCLESGKWPGLQEEILELGLPFSGLKELREEQEVEDEFMELVG	6.0167%	5.7100%	–	–
RecE: Escherichia coli RecE exonuclease; SEQ ID NO: 1 (protein, listed as Escherichia coli) MSTKPLFLLRKAKKSSGEPDVVLWASNDFESTCATLDYLIVKSGKKLSSYFKAVATNFPVVNDLPAEGEIDFTWSERYQLSKDSMTWELKPGAAPDNAHYQGNTNVNGEDMTEIEENMLLPISGQELPIRWLAQHGSEKPVTHVSRDGLQALHIARAEELPAVTALAVSHKTSLLDPLEIRELHKLVRDTDKVFPNPGNSNLGLITAFFEAYLNADYTDRGLLTKEWMKGNRVSHITRTASGANAGGGNLTDRGEGFVHDLTSLARDVATGVLARSMDLDIYNLHPAHAKRIEEIIAENKPPFSVFRDKFITMPGGLDYSRAIVVASVKEAPIGIEVIPAHVTEYLNKVLTETDHANPDPEIVDIACGRSSAPMPQRVTEEGKQDDEEKPQPSGTTAVEQGEAETMEPDATEHHQDTQPLDAQSQVNSVDAKYQELRAELHEARKNIPSKNPVDDDKLLAASRGEFVDGISDPNDPKWVKGIQTRDCVYQNQPETEKTSPDMNQPEPVVQQEPEIACNACGQTGGDNCPDCGAVMGDATYQETFDEESQVEAKENDPEEMEGAEHPHNENAGSDPHRDCSDETGEVADPVIVEDIEPGIYYGISNENYHAGPGISKSQLDDIADTPALYLWRKNAPVDTTKTKTLDLGTAFHCRVLEPEEFSNRFIVAPEFNRRTNAGKEEEKAFLMECASTGKTVITAEEGRKIELMYQSVMALPLGQWLVESAGHAESSIYWEDPETGILCRCRPDKIIPEFHWIMDVKTTADIQRFKTAYYDYRYHVQDAFYSDGYEAQFGVQPTFVFLVASTTIECGRYPVEIFMMGEEAKLAGQQEYHRNLRTLADCLNTDEWPAIKTLSLPRWAKEYAND	–	–	–	had activities without recruitment

From patent US20250034594A1, “RNA-GUIDED GENOME RECOMBINEERING AT KILOBASE SCALE” (THE BOARD OF TRUSTEES OF THE LELAND STANFORD JUNIOR …, priority 2021, published 2025)
